Experiment: yeast display, Sf9 membrane polyspecificity reagent, FACS + sequencing; frameworks hold sequencing errors
How it was run: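 A nanobody's polyreactivity label depends on the gate it was sorted from. Yeast display cells were stained with 10% biotinylated, detergent-solubilized Sf9 membrane reagent for 1 hour at 4 °C, enriched on streptavidin microbeads and sorted by FACS. The low and high (top ~1%) gates were set on anti-HA fluorescence for expression and streptavidin fluorescence for reagent binding.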

| Sequence | polyreactivity (PSR sort gate) |
| --- | --- |
| QVQLVESGGGLVQAGGRLRLSCADSGRTFYYYAMGWYRQAPGKERELVAAIRWRATSTFYADSVKGRFTISRDNAKNTVYLQMNSLKPEDTAVYYCATTGGYRLQAQKYYYWGQGTQVTLSS | high polyreactivity |
| QVQLEESGGGLVQAGGSLRLSCAASGFTFTPNAMGWYRQAPGKERELVAAINWSGGRTYYADSVKGRFTISRDNAKNTVYLQMNSLKPEDTAVYYCNVLKGRSYYPGMDYWGQGTQVTVSS | high polyreactivity |
| QDQLVESGGGLVQAGGSLRLSCAASGLTFYSNTMGWYRQAPGKERELVAGISWGGDTTYYADSVKGRFTISRDNAKNTVYLQMNSLKPEDTAVYYCAADRSYWRHRYSYDYWGQGTQVTVSS | low polyreactivity |
| QVQLVESGGGLVQAGGSLRLSCAASGSTFWKYVMGWYRPAPGKERELVAAITSRGGSTYADSVKGRFTISRDNAKNTVYLLMNSLKPEDTAVYYCAATKFWYYGYDYWGQGTQVTVSS | low polyreactivity |
| QVQLVESGGGLVQAGGSLRLSCAASGFTFDKKVMGWYRLAPGKERELVAANSVRGGTTYYADSVKGRFTISRDYAKNTVYLQMNSLKPEDSAVYDCAARAYGPPARYESWGQGTQVTVSS | low polyreactivity |
| QVQLVESGGGLVQAGGSLLLSCAASGNTFVNNAMGWYRQAPGKERELVAAISRRGGTTYYADSVKGRFTISRDNAKNTVYLKMKSLKPEDTAVYYCAKYGYAFDSWGQGTQVTVSS | high polyreactivity |
| QVQLVESGGGLVQAGGSLRLSCAASGFTFRRNAMGWYRQAPGKERELVAAITRGGGSTYYADSVKGRFTISRDNAKNTVYLQMNSLKPEDTAVYYCAADGYYQYESWGQGTQVTVSS | high polyreactivity |
| QVQLVESGGGLVQAGGSLRLSCAASGFIFRRYAMGWYRQAPGKERELVAAIRWDDGNTYYADSVKGRFTISRDNAKNTVYLQMNSLKPEDTAVYYCNADKWSSTDDWLYDYWGQGTQVTVSS | low polyreactivity |
| QVQLVESGGRLVQPGGSLSLSCADSGNIFYWNTMGWYRQAPGKERELVATISWSGRTTYYADSVKGRFTISRDNEKNTVYLQMNSLKPEDTAVYYCAADVTSGVYSFSFDYLGQGTQVTVSS | low polyreactivity |
| QVHLVESGGGLVQAGGSLRLSCAASGRTFRYYAMGWYRQAPGKERELVAAITGSGGRTYYADSVKGRFTISRDNAKNTVYLQMNTLKPEDTAVYYCNRDPDIYICYDYWGQGTQVTVSS | high polyreactivity |
| QVQHVESGGGLVQAGGSLRLSCAASGSTFANNAMGWYRQAPGKERELVASITTDGSTNYADSVKGRFTISRDNAKNPVYLQMNSLKPEDSAVYYCAADYHTPSSFAPIELYDYCGQGTQVTVSS | low polyreactivity |
| QVQLVESGGGLVQAGGSLRLSCAASGFTFRYYAMGWYRQEPGKERELVARISSGGSTNYADSVKGRFTISRDNAKNTVYLQMNSLKPEDTSVKYCAARLDHWLIYAYDYWGQGTQVTVSS | high polyreactivity |
| QDQLVESGGGLVQAGGSLRLSCAASGFNFMSKGMGWYRQAHGKETEFVAVITSSTGSTSYADSVKGRFTISRDNAKNTVYLQMNSLKPEDTGVFYCAADAYYYYAGGHYYWGQGTQVTVSS | low polyreactivity |
| QVQLVESGGGLVQAGGSLSLSCAASAHTFVTNAMGWYRQAPGKERELVAAISRSGGHTYYADSVKGRFTISRDNAKNTVYLQMNSLKPEDTAVYYCAKTRGPRTLYDYWGQGTQVTVSS | high polyreactivity |
| QVQLVETRGGLLQAGGSLRLSCDASGRTFAYYAMGRYRQAPGKESELVAAITYSDGSTYYADSVKGRFTISRDNAKNTFYLQMNSLKPEDPSVYYCAKGLSREEPENDYDYWGQGTQVTVSS | low polyreactivity |
| QVQLVESGGGLVQAGGSLRLSCAASGITFTPNAMGWYRQAPGKEREFVAAITYSGGSTYYADSVKGRFTISRDNAKNTVYLQMNSLKPEDTAVYYCAAVYYLLYYEAYYYWGQGTQVTVSS | low polyreactivity |

| Sequence | polyreactivity (PSR sort gate) |
| --- | --- |
| QVQLVESGGGLVQAGVSLRLSCAPSGRTFIYYAMGWYRQAPGKERELVATINGITGSTYYADSVKGRFTNSRDNAKNTVYLQMNSLKPEDTAVYYCAKVPRKYRAWMDYWGQGTQVTVSS | high polyreactivity |
| QVQLVESGGGLVQAGGSLRLSCAASGRTFERYAMGWYRQAPGKERELVAAISWSGSSTYYADSVKARFTISRDISKNTVYLHMNSLKPEDTAVYYCNALFQQRYGYWGQGTQVTVSS | low polyreactivity |
| QVQLVESGGGLVQAGGSLRLSCAASGITITTYAMGWYRQAPGKERELVAAISSASSTYYADSVKGRFTISRDNAKNTVYLQMNSLKPEDTAVYYCAARVFKKYRPSGRYYYWGQGTQVTVSS | high polyreactivity |
| QVQLVESGGGLVQAGGSLRLSCAASGSTIYWYAMGWYRQAPGKERELVAAISLSGGSTYYADSVKGRFTISRDNAKNTVYLQMNSLKPEDTAVYYCAARTSYYVYRHPSGRYDYWGQGTQVTVSS | low polyreactivity |
| QVQLVESGGGLIQAGGSLRLRCAASGSTFPYYAMGWYRQAPGKEREFVAAIRFSGSSTYYADSVKGRFTISRDNAKNTVFLQMNRLIPEDTAVYYCATDYWLPSYSYDYWGQGTQVTVSS | low polyreactivity |
| QVQLVESGGGLVQAGGSLRLSCAASGNIFAFYAMGWYRQAPGKERELVADISWSGASTYYADSVKGRFTISRDNAKNTVYLQMNSLKPEDTAVYYCAAYATYYVIFYGDEYWGQGTQVTVSS | high polyreactivity |
| QVQLVESGGGLVQAGGSLRLSCAASGSNFSFYAMGWYRQAPGKERELVAAISYSGGSTYYADSVKGRFTISRDNAKNTVYLQINSLKPEDTAVYYCNSDIYRHHGWVPGGYRGQGTQVTVSS | low polyreactivity |
| QVQLVESGGGLVQAGGSLRLSCAASGSTFRTNVMGWYRQAPGKEREVVAAITKRGSITYYADSVKGRFTISRDNAKNTVYFQMNTLKPEDTAVYYCAARKVAVRGYAYWGQGTQVTVSS | high polyreactivity |
| QVQLVESGGGLVQAGGSLRLSCAASGRTFRTNVMGWYRQAPGKERELVAAISKRGGSTYYADSVKGRFTISRDNAKYTVYLQMNILNPEDTAGYYCAAVFSPYYDHQGDYWGQGTQVTVSS | high polyreactivity |
| QVQLVESGGVLVQAGGSLRLSCAATVFIFKGNAMGWYRQAPGKEREFVADISARGGSTYYADSVKGRFTISRDNAKNTVYLQMNTLKPEDTAVYYCAATTGLYTRYGYWGQGTQVTVSS | high polyreactivity |
| QVQLVESGGGLVQAGGSLRLSCAASGSTFDWYAMGWYRQAPGKDRELVAAISSDDSTYYADSVKGRFTISRDNAKNTVYLQMNSLIPEDTAVYYCAVDVYSDYGDYGYWGQGTQVTVSS | low polyreactivity |
| QVQLVDSGGGLVQAGGSLRLSCAASGRIFGVNAMGWYRQAPGKERELVAAINFSGGGTYYADSVKGRFTISRDNAKNTVYLQMNSLKPEDTAVYYCAADGPDYKWYYELDYWGQGTQVTVSS | low polyreactivity |
| QVQLVESGGGLVQAGGSVRLSCAASGLIFGGYTMGWYRQAPGKDRELVAAIDSADSTYYADSVKGRFTISRDNAKNTVYLQMNSLKPEDTAVYYCATYWYYSGPAYSLRETGGVNYWGQGTQVTVSS | low polyreactivity |
| QVQLVESGGGLVQAGGSLRLRCAASGFIFGYYAMGWYRQAPGKERELVAAITTSGGSTYYADSVKARFTISRDNAKNTVYLQMNSLKPEDTAVYYCNKPGNYVWRRSWDFDYWGQGTQVTVSS | high polyreactivity |
| QDQLVESGGGLVQAGGSLRLSCAATGSTYYGYVMGWYRKAPGKETELVAAINLRGDRTYYADSVKGRFTISRDNAKNTVYLQMNSLKPEESSVYYCAARVMFYNSIKRYSWGQGTQVTGSS | high polyreactivity |
